Measured values as given in patent publication US20210063414A1, “METHODS FOR PREVENTING AND/OR TREATING BONE LOSS CONDITIONS BY MODULATING IRISIN” (Dana-Farber Cancer Institute, Inc., priority 2018, published 2021).

Test system: sclerostin
Assay: Irisin injection in mice: sclerostin mRNA in osteocyte-enriched bones and plasma sclerostin protein (ELISA)
Format: in vivo
Conditions: irisin IP daily for 6 days
Method: 8 weeks old mice were injected daily with indicated dose of irisin for 6 days. […] were collected and treated with collagenase to yield osteocyte-enriched bones. Sclerostin mRNA level from osteocyte-enriched tibia was analyzed by qPCR (FIG. 7A). Cyclophilin was used as a house-keeping gene. Plasma was collected to analyze the circulating sclerostin protein level by ELISA assay (FIG. 7B). Data are represented as mean±SEM. For FIG. 7A and FIG. 7B, n=5 animals/group. * indicates p<0.05, and *** indicates p<0.001.
Certain materials and methods were used to generate the results described herein. For example, the data shown in FIG. 1A resulted from MLO-Y4 (an osteocyte-like cell line) cells treated with the indicated concentration of irisin and hydrogen peroxide for 4 hours. Cells were stained with Hoechst 33342 (ThermoFisher Scientific, catalog number H3570) and Eth-D1 (ThermoFisher Scientific, catalog number E1169) and analyzed to determine the percentage of cell death using ImageJ. […] Co-precipitated irisin was analyzed by immunoblot analysis against flag tag (Sigma Aldrich, catalog number A8592). The data shown in FIGS. 5A and 5B were generated from MLO-Y4 cells treated and analyzed as in the experiments used to generate the data shown in FIG. 2D, except that pre-treatment of 100 nM RGDS (FIG. 5A) or echistatin (R & D Systems Inc., catalog number 3202/100U) (FIG. 5B) for 10 minutes was performed before irisin treatment. […] RNAs were extracted from the cells and the sclerostin mRNA level was analyzed by qPCR (FIG. 6A) or treated and analyzed as in (FIG. 6A), except that pre-treatment of 10 μM RGDS, RGDyK (Selleck, catalog number S7844), or echistatin was performed for 10 minutes before irisin treatment. […] Sclerostin mRNA level was analyzed by qPCR (FIG. 7A). […] Epididymal fats were collected, RNAs were extracted from the tissues, and mRNA levels of the indicated genes were analyzed by qPCR. […]

B1: irisin: secreted cleaved form of FNDC5; recombinant human/mouse irisin with C-terminal his tag produced in HEK293 cells (protein)
chain: DSPSAPVNVTVRHLKANSAVVSWDVLEDEVVIGFAISQQKKDVRMLRFIQEVNTTTRSCALWDLEEDTEYIVHVQAISIQGQSPASEPVLFKTPREAEKMASKNKDEVTMKE
modifications: left off: small tags and cut ends
notes: secreted cleaved form of FNDC5; recombinant human/mouse irisin with C-terminal his tag produced in HEK293 cells
  sclerostin mRNA in osteocyte-enriched bones: stimulated sclerostin mRNA
ELISA
  circulating (plasma) sclerostin protein: significant increase
Listed as recombinant irisin
  sclerostin mRNA in osteocyte-enriched bones: raised the sclerostin mRNA level
